Results as given in publication PMC3964825 (Biochemistry, 2013).
Where “and” joins values, the source holds several entries; their conditions need not be identical. Equal entries are not always repeated.

What was measured:
native MS = target: the molecule itself; assay: native MS
native gel or EMSA = target: the molecule itself; assay: native gel or EMSA

B1: EZH2-EED heterodimer (FLAG-EZH2–6×HIS-EED) (complex)
chain 1: not shown
chain 2: not shown
In the case of B1, the “stoichiometry N” value (native MS) is reported as 2 and 3 and the “stoichiometry N” value (native gel or EMSA) is reported as ≤ 4.
